experiment: yeast display, Sf9 membrane polyspecificity reagent, FACS + sequencing; frameworks hold sequencing errors
In short: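 Galactose-induced (36–48 hours) yeast carrying a synthetic nanobody display library were exposed to 10% biotinylated, detergent-solubilized Sf9 membrane reagent at 4 °C for 1 hour. FACS followed streptavidin microbead enrichment, using low and high (top ~1%) gates for expression (anti-HA) and reagent binding (streptavidin). Colony PCR, MiSeq 2 × 250 sequencing and CDR-length filtering followed. Labels for polyreactivity reflect the gate of origin.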

Sequence | polyreactivity (PSR sort gate)
QVQLVESGGGLVQAGGSLRLSCAASGSIFRVYAMGWYRQAPGKERELVAAITRGGSTYADSVKGRFTISRDNAKNTVYLQMNSLKPEDTAVYYCAAQRTLYRSGFDSWGQGTQVTVSS | high polyreactivity
QVQLQESGGGLVQARGSLRLSCAASGTISQEDCMGWYRQAPGKVREFVAAIGLGSNTNYADRLKGRFTISRDNAKNTVYLQMNSLKTEDTAVYYCAVSVWQYSDHVYRGQGTQVTVSS | low polyreactivity
QVQLVESGGGLVQAGGSLRLSCAASGLTFKWNTMGWYRQAPGKERELVAAISWRVVSTYYADSVKGRFTISRDNAKNTFYLQMNSLKQEDTAVYYDYWGQGTQVTVSS | low polyreactivity
QVQLVESGGGLVKAGGSLRLSCAASGRNFWFNAMGWYRQAPGKERELVAAIRNRGGSTYYADSVKGRFTISRDNAKNTVYLQMNSLKPEDTAVYYCARAPEGTGGKYGYWGQGTQVTVSS | high polyreactivity
QVQLVESGGGLVQAGGSLRLSCAASGSTLRAYAMGWYRQAPGKERELVATITRGARTNYADSVKGRFTISRDNAKNTVYLQMNSLKPEDTAVYYCAARSYGSQLSRQVYYWGQGTQVTVSS | high polyreactivity
QVQLVESGGGLVQAGGSLRLSCAASGSIFPYNVMGWYRQAPGKERELVASIDGRGASTYYADSVKGRFTISRDNAKNTVYLQKNSLKPEDTAVYYCAAGYEPYAAWYYYWGQGTQVTVAS | low polyreactivity
QVQLVESGGGLVQAGGSLRLSCAASGRTFTPYAMGWYRQAPGKERELVATISSGTSTNYADSVKGRFTISRDNAKNTVYLQMNSLKPEDTAVYYCAADGYTYKFDYWGQGTQVTVSS | low polyreactivity
QVQLVESGGGLVQAGGSLRLSCAASGFTFSFYARGWYIQAPGKERELVAAIDRSGGSTYYADSVKGRFTISRDNAKNTVYLQMNSLKPEDTAVYYCAATVFYGYYYWGQGTQVTVSS | high polyreactivity
QVQLVESGGGLVQAGGSLRLSCAASGRIFNINAMGWYRQAPGKERELVAAITWRSGSTYYADSVKGRFTISRDNAKNTVYLQMKSLKPEDTAVYYCAADFSQTRRPIRFYYWGQGTQVTVSS | high polyreactivity
QVQLVESGGGLVQAGGSLRLSCAASGSIFSPYAMGWYRQAPGKERELDASISSGTSTNYADSVKGRFTISRDNAKNTVYLQMNSLKPEDTAVYYCNAGADSTVRNYVTSFSQYDYWGQGTQVTVSS | low polyreactivity
QVQLVESGGGLVQAGGSLRLSCAASGSIFRPYAMGWSRQAPGKERELVAAISWRSGRTYYADSVKGRFTISRDNAKNTVYLQMNSLKPEDTAVYYCAADLASYAYRYDYWGQGTQVTVSS | high polyreactivity
QVQLVESGGGLVQAGGSLRLSCAASGSIFADYVMGWYRRAPGKERELVAAITRRGRTYYADSVKGRFTISRDNAKNTVYLQMNSLKPEDTAVYYCAKVASGKIDSWGQGTQVTVSS | low polyreactivity
QVQLVESRGGLVQAGGSLRLICAASGRIFGRNAMGWYRQAPGKERELVAAISKRGGSTSYADSVKGRFTISRDNAKNTVYLQMNSLKPEDTAVYYCATSAPLVTSSGYGYWGQGTQVTVSS | high polyreactivity
QVQLVESGGGLVQAGGSLRLSCAASGFTSRYYAMGWYRQAPGKERELVAAISSSGGRTYYADSVKGRFTISRDNAKNTVYLQMNSLKPEDTAVYYCNTGIHARYGGLYGYWGQGTQVTVSS | high polyreactivity
QVQLVESGGGLVQAGGSLRLSCAASGRTFSINAMGWYRQAPGKEREMVADITKRGSTYYADSVKGRFTISRDNAKNTVYLQMNSLKREDTAVYYCNARYRGRVYDRFGYWGQGTQVTVSS | high polyreactivity
QVQLVESGGGLVQAGGSLRLSCAASGIIFGVYAMGWYRQAPGKERELVAAIDGNGSSTYYADSVKGRFTISRDNAKNTVYLQMNSLKPEDTAVYYCAARPDYYLWHGYYTRRHYYWGQGTQVTVSA | low polyreactivity
QVQHVESGGGLVQAGGSLRLSCAASGSIFYTYPMGWNRQAPGKERELVAAISFSDGDTYYADSVKGRFTISRDNAKNTVYLQMIRLKPVDTAVYYCNDYVYLPNYPYDYWGQGTHVTVSS | low polyreactivity
QVQLVESGGGLVQAGGSLRLSCAPSGRTFPYYAIGSYRQAPGKERELVARITGSGTSTYYADSVKGRFTISRDNAKNTVYLQMNSLKPEDTAVYYCAAPKYGSYYIADYEYWGQGTQVTVSS | low polyreactivity
QVQLVESGGGLVQAGGSLRLSCAASGSIFNGYVMGLYRQAPGKERELVAAISSGGRTYYADSVKGRFTISRDNAKNTVYLQMNSLKPEDTAVYYCAADIWYFDYDYWGQGTQVTVSS | high polyreactivity
QVQLVESGGVLVQAGGSLRLSCAASGSTFTTNAMGWYRQAPGKERELVARISRIGASTHYADSVKGRFTISRDNAKNTVYLQMNSLKPEDTAVYYCAKSKGTPGNFGYWGQGTQVTVSS | low polyreactivity
QVQLVESGGGLVQAGGSLRLSCAASGLTFKSYTMGWYRQAPGKERELVATISGSGTRTYYADSVKGRFTISRDNAKNTVYLQMNSLKPEDTAVYYCARVIWYNNYFRYSGYRSDYWGQGTQVTVSS | high polyreactivity
QFHLVESGGGLVQAGGSLRLSCAASGRIFYPYAMGWYRQAPGKEREFVAAITRRTASTYYADSVKGRFTITRDNAKNTVYLQMNSLKPEDTAVYYCAADSYLKRPYYAGYYYWGQGTQVTVSS | high polyreactivity

Sequence | polyreactivity (PSR sort gate)
QVQLVESGGGIVQAGGSLRLICAASGYTFNYYAMGWYRQAPGKEREFVASTYADSVKGRFTISRDNAKNTVYLQMNSLKPEDTAVYYCNARNLGRYLVLSYGYWGQGTQVTVSS | low polyreactivity
KVQLVESGGGLVQAGGSLRLSCAASGFTFLRYGMGGYRQAPGKERELVASITSGGGTNYADSVKGRFTISRDNAKNTVYLQLNSLKPEDSAVYYCNAVFFYHGTKPAFISHDYWGQGTQVTVSS | low polyreactivity
QVQLVESGGGLVQAGGSLRLSCAASGSNFWLYAMGWYRQAPGKERELVAAIRSGDRTNYADSVKGRFTISRDNAKNTVYLQMNSLKPEDTAVYYCAAVAYLNWTPHYYWGQGTQVTVSS | low polyreactivity
QVQLVESGGGLVQAGGSLRLSCAASGFFLGQYTMGWYRQAPGKERELVAAISSSGSTNYADSVKGRFTISRDNAKNTVYLQMNSLKPEDTAVYYCSIAGIRHVTSKFKGYHFGYWGQGTQVTVSS | low polyreactivity
QVQLVESGGGLVQAGGSLRLSCAASGFIFYRNVMGWYRQAPGKERELVAAISGSGGRTYYADSVKGRFTISRDNAKNTVYLQMNSLKPEDTAVYYCAADASLEGDYWGQGTQVTVSS | high polyreactivity
QVQLVESGGGLVQAGGSLRFSCAASGRTFWSNAMGWYRQAPGKERDFVAVISRAGSTTYYADSVKGRFTISRDNAKNTVYLQMNSLIPEETAVYYCAADRVRSYFSRYYSTPLDYYWGQGTQVTVSS | high polyreactivity
QVQLVESGGGLVQAGGSLRLSCAASGSNFGYYAMGWYRQAPGKERELVAAISWRGGSTYYADSVTGRFTISRDNAKNTVYLQMNSLTPEDTAVYDCAAPVGNYGSFDYWGQGTQVTVSS | low polyreactivity
QVQLVESGGGLVQAGGSLRLSCAASGRIFTNAMGWYTQAPGKQRELVAAISGGSNTYYADSVKGRFTISRDNANNTVYLQMNSLKPEDTAVYYCNTDDQWWDGGYDYWGQGTQVTVSS | low polyreactivity
QVQLVESWGGLDQAGGSLRLSCAASGRNLYWNTMGWYRQPPGKETQLVASITQNVGSTYYADSVKGRFTISRDFAKNTVYLQMNSLKPEDTAVYDCAAKRLYWLRYGYWGQGTQDTVSS | low polyreactivity
QVQLVESGGGLVQAGGSLRLSCAASGSTFTQKAMGWYRQAPGKERELVAAISSSGTRTYYADSVKGRFTISRDNAKNTVYLQMNSLKPEDTAVYYCNARYRIGSWYEFGSWGQGTQVTVSS | high polyreactivity
QLQLVESGGGLVQAGGSLRLSCAASGISFSSYTMGWYRQAHGKERELVAAITWRGGRTYYADSVKGRFKISRDNAKNTVFLQMHSLKTEDTSVFYCAARDVAGYSTRFYYWGQGTQVTVSS | high polyreactivity
QVQLVDSGGGLVQAGGSLRLSCAASGRTFSGNAMGWYRQAPGKERELVAAIRGGGSTYYADSVKGRFTISRDNAKNTVYLQMNSLKPEDTAVYYCAGRSQVYAPAYYRSKYDYWGQGTQVTVSS | high polyreactivity
QVQLVESGGGLVQAGGSLRLSCAASGRTFKYYAMGWYRQAPGKERELVAAISSRGGSTYYADSVKGRFTISRDNAKNTVYLQMNSLKPEDTAVYYCAKGTYLSTSTVANDYWGQGTQVTVSS | high polyreactivity
QVQLVESGGGLVQAGGSLRLSCAASGYIFKYNAMGWYRQAPGKERELVAAISGRGGSTYYADSVKGRFTISRDNAKNTVYLQMNSLKPEDTAVYYCNADYQARRYNYWGQGTQVTVSS | high polyreactivity
QVQHVESGGGLVQAGGSLRLSCAASGSTFFRYAKGWYRQAPGTERELVAAISYSGDSTYYADSVKGRFTISRDNAKNTVYLQMNSLKPEDSAVYYCNAVYFRYRYNYWGQGTQVTVSS | high polyreactivity
QVQLVESGGGLVQAGGSLRLSCAASGLTFGRNAMGWYRQAPGKERELVAAITFNGGSTYYADSVKGRFTISRDNAKNTVYLQMNSLKPEDTAVYYCAARLWRRSRFDYWGQGTQVTVSS | high polyreactivity
QVQLVESGAGLVQAGGSLRLSCAASGFIYEWYTMGWYTQAPGKERELVARISTDGSTTYADSVKGRFTISRDHAKKTVYLQMNSLKPEDTSVYYCAADVTYPGLKYIFDYWGQGTQVTVSS | low polyreactivity
QVQLVESGGGLVQAGGSLRLSCAASGSICYSNARGWYRQAPGKERELVAAISFTGGTTYNADSVKGRFTISRDNAKNTVYLQMNSLKPEDTAVYFCNKLYHHYYGYWGQGTQVTVSS | high polyreactivity
QVQLVESGGGLVQAGGSLRLSCAASGSTFAGNAIGWYRQAPGKERELVAAIDSSTGSTYYADSVKGRFTISRDNAKNTVFLQMNSLKPEDTAVYYCNKTSFLVNLDYWGQGTQVTVSS | low polyreactivity
KVQLVESGAGLVQAGGSLRLTCAASGFTFAYYAMGWYRPAPGKERELVAAISWSGGITYYADSVKGRFTISRDNAKNTVYLQMNSLKPEDTAVDYCAAETFRGSYYDEDYDYWGQGTQVTVSS | low polyreactivity
QVQLVESGGGLVQAGGSLRLSCAASGSIFNKNVMGWYRQAPGKERELVAAITSGGGSTYYADSVKGRFTISRDNAKNTVYLQMNSLKPEDTAVYYCAAGRGLYEYNYWGQGTQVTVSS | high polyreactivity
